In the DeepSol protein solubility set:

experiment: soluble on expression in E. coli; label from the status in PepcDB or PDB records

Sequence	soluble on expression in E. coli
MSLAQSIVVVAEPSHSDLYDLLAVGNAGIRLVSAAGLSTAIGPSDPDIVILDSGTDADGGITLLGEIKALRNDLPVIFLTDSSSEEIVLKAFRKGAREYFRKPVDLHVLQHAVETILALRRMQRERRDPLKRHYSDPINLPDDLPESIGRAVMHIKSNYDCALYLDDLARAAHLSKFHFCRNFKKYIGVSPMRFMNMVKISKAETLLRRADLTISTVAYKLGFNDPSEFTRQFKSITGISPSAFRRSCLSEGHHHHHH	not soluble
MGSDKIHHHHHHMTLNIDQESCIKCGKCVRVCPSDIFTQERAGETIGLVRVESCIVCGHCVDVCPTGSVSHSEFPPEKTHTIDYSQMPTPEQVMLLIKSRRSNRTLTSRPVPKEMLDKIVEAAHSAPTATNSQSLSFTVVTDPRKLRQVSDYTIGVFDSLAKLLLNPVVKCVVKPFMKDVYKYVPVFNRLKEEHKAGKDPILRKATALLLIHTPKSNRFGSEDANLAYQNASLMAQSLGVSQIYMGFVLTAIRQEGKDTLAKTLGIDGKIQAIMALGIPAFKYPKYTDRKEIVKNYIE	not soluble
MNNMKKYLSLCIMLLCLCSTVMAQQEKVVVKGVVTDEAKEPLIGVNVTVKDMPGLGSITDMNGHYSITMEPYRQLVFTYIGYESKEVMVKEQRTINVVMKESVTRAVDEVVITGTGVQRKLTQTGAITTVDVGELKRNPSSSIVNALAGNVPGIMARQTSGQPGKNISEFWIRGISTFGANSSAYVLVDGFERSMDEINIEDIETFTVLKDASATAIYGSKGANGVVLITTKRGKAGKIKIDAKVETTYNTRTVLQSSKTDLLMPA	not soluble
MGSDKIHHHHHHMKLYKLLILDIDGTLRDEVYGIPESAKHAIRLCQKNHCSVVICTGRSMGTIQDDVLSLGVDGYIAGGGNYIQYHGELLYNQSFNQRLIKEVVCLLKKREVAFSIESQEKVFMNQKAKEIFETMNQLKGTNSCINKQHIQEKITYENNIEEYKSQDIHKICLWSNEKVFDEVKDILQDKMELAQRDISSQYYEIIQKDFHKGKAIKRLQERLGVTQKETICFGDGQNDIVMFQASDVTIAMKNSHQQLKDIATSICEDIFDNGIYKELKRRNII	not soluble
IPLKSIEVPFEGELLPGYAIISEDKAQDTLIVVGGGDTSREDLFYMLGYSGWEHDYNVLMVDLPGQGKNPNQGLHFEVDARAAISAILDWYQAPTEKIAIAGFSGGGYFTAQAVEKDKRIKAWIASTPIYDVAEVFRISFSTALKAPKTILKWGSKLVTSVNKVAEVNLNKYAWQFGQVDFITSVNEVLEQAQIVDYNKIDVPSLFLVGAGEDSELMRQSQVLYDNFKQRGIDVTLRKFSSESGADAHCQVNNFRLMHYQVFEWLNHIFKKKD	not soluble
MTARTITDVITRPLPPLPLTAAASAEVLPDWAQPARRHPAAQPWPENLTRMAVGVVDSTGATGWFGPVSATVARMVFDQVAPAVIGRELAAWRAMASLAPHGRHRQGAHLRLAVSAVELAAWDLRSHATGVPVGALLAGERRERIPVYATALGIDIDHPLAPDIAAWLVDEGFWAQKWGLPGAARGETPRADAARLRRLREAAGERARIGVDVGGRWPADYARQMLPVLAEAGVCWVEEPGPISDADLARHGLARAAGEHDYEPTDQLRTLGGDIQIWQPDPTWCGGLAHTLSMVELAARLNIRSLPHGSGLAAALALAASAPAAAVPAIEYHLTLEPLRQDHQLDPLVPAAGHLDARTAAGLTSGYRFGEGDAGAAA	soluble
MSLNESEEKNSNSTYSFFFKNLSVTGFYEENCLFMTVKELFDNSIDALCNNKGDENIDEEGQGTQEKKIEIEIKEYGINSSFYEIICRDNGEGIEVKDLEKISEMFLTSKEKCITSGKFGIGLKTILLYSFKTAYGFLHIKIKVKKNKIWDFILVLDKNLNHTFVQNFKEYIDDKWEWTIEISVILKINNNYISDKKIHSYIKLFLLWKKNITVKYIHNPNGEQSIYTYSSHSDTSEENILSMLANNSINMIFKKDFLTSYNYDVNMYVNVRKSEKIIPYEHGHNIGFLFLIRYVNSMPLLRTSSSDCSITVDFRNFLKYYGPQFGIELPTIESRDEMILEELALPSCFDDLNKVANIFPVKRSEEGHHHHHH	soluble
MSLNISNVLFLLHQKFPDPLPDNPICTREETKLAGHLVNILKLAVDHDIDVEERDEVADETFSDWDSIEFEPNDGVIFSSPTELVFGGRVVTREEANTALDYYRSAKAGKRTLEAMRNRFRWITGRHDMDKLKLYEKDRDNFKESRRNLLKFLGERLYEEVKGRLDSGICLHDRDLKMIALDINKKETHVENFKACQTWITNWKRSYNIVSRKITKFVTRRYVRNKAATLQSAKDFVQGCRMDISSYGPEMIFNADQCGIQKELFGARSLAYLGEKSVERIVQSLSSLTHSFTFLPMIFMNGTLGPKAYMKIAEPTGHFPPSRPIPVCSNLEVHAGKSHIMTKDDMRVWLRNCVAHQQCPKKMLMIVDSWTSFKDHATIQSCMQNGVDLTIRNIPPGTTSLIQPLDVHFNGPWKTLIKNFTSYVMSFCPDYIIANRNNTIMMTSLLYHQVSAALFEPFLKYSWNKAGYTDSHDEFVTPADYCFGDVGEEECGFGGCSEFSFIRCARCNCQICFEHFVVDDQHFCPCP	not soluble
MTLNAFIEKLSTQPELIEFTETMAVIESHYEFTPTEFANGNTVNLADQNNGSCKIFAFALLNQLSVDQTLACFGQYYRQDVLENPQGDDHQNIRNFMVTGWAGVQFKAQALQAK	not soluble
MAVIVRKWFGLGRLPADLRCQVEAEGLIYLAEYVAVTRRFTGVIPGLRASHSIASYVGALAFTEQRVLGTLSMVPKLAGRVVDARWDGPQAGAATAEISPTGLQLDLDVADVDPKFSGQLALHFKATIGEDVLSRLPRRSLAFDVPAEYVNLAVGVTYSP	soluble
MAAAKRKLVFDSPNESSVNFETSPNFPKEWKIDGMDIENRIRNFRDELQAQGLCPVGSAGIDPKSKFRTEYRRIVNANTILTDVLRLQQKEGEWLKNASGLLEYDIQSLHARRDHLDNAVEQLKSQLSRLDSSVAILKSQQMAVKSVLELREDEYLADDADSNLPDEFLKFSKISKLCAASLQSYENVKKRNEEMQKELIAERNRQRKLHDATMKMMEEKERVRVEQLEDLFKDFSLEQLTRLRDRIRQAQK	not soluble
MSTYEGRWKTVKVEIEDGIAFVILNRPERRNAMSPTLNREMIDVLETLEQDPAAGVLVLTGAGEAWTAGMDLKEYFREVDAGPEILQEKIRREASQWQWKLLRMYAKPTIAMVNGWCFGGGFAPLVACDLAICADEATFGLSEINWGIPPGNLVSKAMADTVGHRQSLYYIMTGKTFGGQKAAEMGLVNESVPLAQLREVTIELARNLLEKNPVVLRAAKHGFKRCRELTWEQNEDYLYAKLDQSRLLDTEGGREQGMKQFLDDKSIKPGLQAYKR	soluble
MKYLAAYLLLVQGGNAAPSAADIKAVVESVGAEVDEARINELLSSLEGKGSLEEIIAEGQKKFATVPTGGASSAAAGAAGAAAGGDAAEEEKEEEAKEESDDDMGFGLFD	soluble
MIATPNILAPLHDILPLTKGEARISFIGSRSFLLEAPGEFDLPAQRWIWALSQSVSNWPDVAEIIPGMTNLLTIFKETPDDPDSVVGRLRDAWNSAQSLDLTGKTIEIPVHYGGEYATDLAAICDFSGLSDREVVRLHHEATYRVFALGSAPGFGYLHGLDPRIYMPRKTVPSIRMEKGCVTIGGMQTGVAMLTGPNGWNSIGYADLQMFDPESSVPALMAPGDIVRFVPARIELLEHHHHHH	not soluble
MKLGNVVIVLGKRLVNNQLSAEGISRVEALAAKIREMPMENTALVFCGGKTQGQSISEADAMYAYFQTLNTSLAKPFPTSQTLLENRSLNTFENMRNAAKVLCESGLFPLPSQATVEVILLSNVYHLERILEIQTLMDEQGLLRVIKSQCASVGLDLHISLDIQKHISVPYPHQGPQAEAFLLLDELTTYRVYLEGVKSGAFQRDLTSVRAQPLLRAKQAISQLRALPLEMDVLQQIAEMKKAIEMTAFDESVATAERALEMFHPILTALNRRLDPESIQAAALEHHHHHH	soluble
